Assay: soluble on expression in E. coli; label from the status in PepcDB or PDB records

Row | Sequence | soluble on expression in E. coli
1 | MLGGDWTDGTMTDFKWRHFQGDVILWAVRWYCRYPISYRDLEEMLAERGISVDHTTIYRWVQCYAPEMEKRLRWFWRRGFDPSWRLDETYVKVRGKWTYLYRAVDKRGDTIDFYLSPTRSAKAAKRFLGKALRGLKHWEKPATLNTDKAPSYGAAITELKREGKLDRETAHRQVKYLNNVVEADHGKLKILIKPVRGFKSIPTAYATIKGFEVMRALRKGQARPWCLQPGIRGEVRLVERAFGIGPSALTEAMGMLNHHFAAAA | not soluble
2 | EVLRVQDKYFHIKCFVCKACGCDLAEGGFFVRQGEYICTLDYQRLYGTRCFSCDQFIEGEVVSALGKTYHPDCFVCAVCRLPFPPGDRVTFNGKECMCQKCSLPVSVGSSAHLSQGLRSCGGCGTEIKNGQALVALDKHWHLGCFKCKSCGKLLNAEYISKDGLPYCEADYHAKFGIRCDSCEKYITGRVLEAGEKHYHPSCALCVRCGQMFAEGEEMYLQGSSIWHPACRQAARTEDRNKETRTSSESIISVPASSTSGSPSRVIYAKLGGEILDYRDLAALPKSKAIYDIDRPDMISYSPYISHSAGDRQSYGEGDQDDRSYKQCRTSSPSSTGSVSLGRYTPTSRSPQHYSRPGSESGRSTPSLSVLSDSKPPPSTYQQAPRHFHVPDTGVKDNIYRKPPIYRQHAARRSDGEDGSLDQDNRKKSSWLMLKGDADTRTNSPDLDTQSLSHSSGTDRDPLQRMAGDSFHSQYKIYPYDSLIVTNRIRVKLPKDVDRTRLERHLSPEEFQEVFGMSIEEFDRLALWKRNDLKKKALLF | soluble
3 | GNQRKVSVVGAQSTMDVKDIKMPAASLSSAISGRIAGVVAVQRSGEPGHDESDIWIRGLSSLLGQSSSPLVLVDGVERSFNNIDPEDIESFTVLKDASATAVYGVRGANGVVIVKTKPGKVG | soluble
4 | MEKSEIQKVDQVIRAWLEDEPLMYERLLEVEALEALPQVLGPLYKFLGRSRIHDGVLYLTFNSSVVRSQLSNNKAELLLRLNTAVDAELIRQIVFL | not soluble
5 | MGHHHHHHSAISVWRAVDYVRMPWKNGGGSTEEITRDAGTGLEGFGWRLSIADIGESGGFSSFAGYQRVITVIQGAGMVLTVDGEEQRGLLPLQPFAFRGDSQVSCRLITGPIRDFNLIYSPERYHARLQWVDGVQRFFSTAQTVLVFSVADEVKVLGEKLGHHDCLQVDGNAGLLDISVTGRCCLIELTQRG | soluble
6 | GPGSMDVSKRPREELHKEQCLSFVKKLWAADTLAMFHYPVSATEVPGYYDVVETPMDLSTIRKNIEQGTYRTDAEVENDVVLMLSNALDFNEKGSQWHDLAKQFKKQYLTLARESGLSFDADQAFIPTKKVRDDESTLRKAEKKGEEKLEDVLQAMEKDKEIPLEQLRAMYARRTTRGKADQQSSDFSSGRGNDDSDEVVSSDEEDTSDSGSGSYDTEEDEDSLDSESASKDDDDDK | soluble
7 | MKAFDQVNHSLLLQKLHDFGINPLFCNWFHDFLSSRTFSVKVNNHIDPNIHPISSGVPKGSVSGPFLFLIFINSLLLSVPPSISCSAFADDLKVYSHSPPLIQTTIDLITTWSENNKLPLAVHKAALLNKLGFSSNCVLLLAPLINSLVCRLLAASRTGVSTVAHSKTCLLHLGKKNPKTVYKINNLPISPSNIARDLGILTDSKLTFKPHIKKIVSLALLRCKQLLKSFKSLCPEFYCNLFKTYILPLIEYGSAVYSPKPSSSLSTLLEKPLRWYSQKVLQKFNVSYSLYNDRLKSLNLHSIRHRRLKSKLILLYKFCCGTSFLRRKETFFKLSTSSRRPMRIICHNPSSNNFFSDTISFWNAITNNCDTFLSPIHFENLVDNSITRL | not soluble
8 | MGSDKIHHHHHHMQWTEEQLPAIHSFAKKLLVQAFAGTGKTTTLVGYATHNSSVKMLYLCYNKAVEIAAKNRFPRNVTCKTAHGLAYAVYGSQYKHKQAGNLRLTDIARTINTQDWELAKDIVSTLNAFMASKDLELLEDHFVRFQSNRTLTSVQQQYMSKALNLTRDVWDKMVDIQDRSVSMTHDGYLKLYQMSQPDLSQRFGAILLDEGQDVNPVIANLVQIQKITQVTVGDRHQQLYRFRGAVDALNSPAMKDAEKHFLTQSFRFGPAVAYVANVILSFKGEKIPLQGLGQPTLVKRALPEDLPHRTYLHRTVSGVIENALRLVNQDHRMQWIGGIDSYSLRDLEDLFYFSRHMNDQVQQRKLLTDYADYDQYVVIAKATQDPEMLRSIKMIENYPDLPKRIEQLRGASVTSELDATVTLSTAHRAKGLEWDFVGLYDDFSADPLSPDIDAGKRDDELNLLYVAVTRAMKILAVNSLVIDIMQRFKDMKQRSRP | not soluble
9 | MPIGHSREVLVRLRDILALLADGCKTTSLIQQRLGLSHGRAKALIYVLEKEGRVTRVAFGNVALVCLSMDQYRQLVDGMIREVERLVTTNKLKFISPPRLHDLIIKDPQARKFFSSIIPIAHRTAIILSFLNHLLKMIYGEPYVKTDETVYLTANRKVHIEPPAK | soluble
10 | MSEQFVTISQHVRNPQEAAALFGVHDIHLKRIEEELGVSIVTRGETVNVSGTPQQVQLVNELLRHLLIVIRKGAAVSERDVLYAIQLAKKGALDGLVQLYDEEITKNAKGKPIRVKTLGQRYYVAAIEQYDLTFGIGPAGTGKTYLAVVMAVKALKNGSVKRIILTRPAVEAGESLGFLPGDLKEKVDPYLRPLYDALNDVLGAEYTQRLIERGTIEIAPLAYMRGRTLEDAFVILDEAQNTTPAQMKMFLTRLGFGSKMVITGDISQVDLPKGVESGLSVAKRILASIGGIAFVFLEQSDVVRHPLVAKIIDAYDEAGL | not soluble
11 | GSHMTNVTGDYTDCTPLLGDRAALDSFYEEHGYLFLRNVLDRDLVKTVAEQMREGLVALGAADPHATLEELTIDSFESVDEVAMHDYVKYDAFWNNPSTIKVFEQVFGEPVFVFLSTTIRYYPSQAGSEEPSFHYLTPFHQDGFYIGPNQDFRTFWIPLIRTTRESGGVALADGSHRRGKRDHVLNESFRRFGHPVRGIPPTEVSEDEHLLHSPMEPGDILLFHAHMCHKSIPNLSKDPRLMRMSMDTRVQPAKSHRGFNAMTPWTESAKDASKGIMAKITGTPTDVE | soluble
12 | MAISRELVDPNSSPREIEVSEPREVGITELVLRDAHQSLMATRMAMEDMVGACADIDAAGYWSVECWGGTTYDSCIRFLNEDPWERLRTFRKLMPNSRLQMLLRGQNLLGYRHYNDEVVDRFVDKSAENGMDVFRVFDAMNDPRNMAHAMAAVKKAGKHAQGTICYTISPVHTVEGYVKLAGQLLDMGADSIALKDMAALLKPQPAYDIIKAIKDTYGQKTQINLHCHSTTGVTEVSLMKAIEAGVDVVDTAISSMSLGPGHNPTESVAEMLEGTGYTTNLDYDRLHKIRDHFKAIRPKYKKFESKTLVDTSIFKSQIPGGMLSNMESQLRAQGAEDKMDEVMAEVPRVRKAAGFPPLVTPSSQIVGTQAVFNVMMGEYKRMTGEFADIMLGYYGASPADRDPKVVKLAEEQSGKKPITQRPADLLPPEWEKQSKEAATLKGFNGTDEDVLTYALFPQVAPVFFEHRAEGPHSVALTDAQLKAEAEGDEKSLAVAGPVTYNVNVGGTVREVTVQQATRASQPELAPEDPEDLEHHHHHH | soluble
13 | MSEITASRPEVVNGHTDVICSTSIRHILAVRKSTLLQIDTLIRQLAEVSAMTESIRGKTALDWAMKQDFRCGCWLMEKPETAMKAITRNLDRELWRDLMQRSGMLSLMDAQTRDTWYRSLEYDNFPEISEANILSTFEQLHQNKDEVFERGVINVFKGLSWDYKTNSPCKFGSKIIVNNLVRWDRWGFHLITGQQTDRLVDLERMLHLFSGKPIPDNRENITIRLDGHIQSVQGKERYEDEMFIIKYFKKGSAHITFKRLELIDRINDIIARYFPSVLSA | not soluble
14 | MQGDAAEKARLRGERLAARDALTPAERQQKSLSMTAHGVSGIPFAPGTVISGFMPIRSEVDTRPLMEALRARDGRLVLPVVLDQETIVFRVFEADTPLVKTGFGTTGPGEDAEVLDPHILLVPLSVFDGEGQRIGYGAGHYDRAIARLHAKGRQPVLIGIAFDCQEVASVPAEPHDVALHAVLTESGLRWFSAQRLEHHHHHH | not soluble
15 | ANVEIYTKETCPYCHRAKALLSSKGVSFQELPIDGNAAKREEMIKRSGRTTVPQIFIDAQHIGGYDDLYALDARGGLDPLLK | soluble
16 | VWVSENIERLIGYTPGEALAPGWWLSHLYPDDREQVLERQPILLSDGQLTHDYRFYHRDGRIIWILDELRLIRNADGQPHEVVGTWLDIS | not soluble
17 | MANFVQLSETPAACSSNPCGPEAAGTCKETNSGYICRCNQGYRISLDGTGNVTCIVRQESG | soluble
18 | MGSDKIHHHHHHMSHANQAIPLDEEAIFDAMPMEEEGQFANHATPLIRNCWYVCARRDEVGRTPISRRLLDTDVVMYRTRDGRPVAMHNRCPHRAFPLAKGHVEGDRLVCGYHGMQFEPDGLCAHLPAISHVPANACVQTYPIADRGPLTWIWMGDANLADEALIPELPWLASSEWGSVTGDFHIKADYVSMHENLIDQTHFPFLHPGTVGTPEYARASMNATTEGDQVLIHRRLDNAPPPGIYGKPADIMHKNVDRTSEARFVSPAVHMAHARIFDPQPEPGKPSVYGYYITHCFTPESNHSIHYWWFNSRDYGIDDTDIDAFMYEASMQAYYEDVEALEWIMDVVLTDNEAQQFELSFAPDKPGLMARRIMHRLAMSERG | not soluble
19 | MGYLHIDGRGMKPNGGSRHNPLEAETIAAWLVAHKDDIERHYGEPLYKVVGVVTPFSAQVNAIKMSLRKLEINGKDEQGLLTVGTVHSLQGAERAIVLFSPVYSKHEDGRFLDSNSTILNVAVSRAKDSFLVFGDMDLIEMQPAFSPRGLLAKYLFSSDNNALQFEFQKRQDLISAHTQISTLHGVEQHDEFLNKTLAGAQKKITIISPWLSWQKVEQTGFLASMALARSRGIDITVVTDKNCNIAHVDDDKRQEKQHLLNDAVEKLNKMGIATKLVNRVHSKIVIEDEELLCVGSFNWFSATREDKYQRYDTSLVYRGEGVKNEIKAIYGSLDQRQLMGHHHHHHSH | not soluble
20 | MNVPGAAPFLTAQSEEEATEVLESIHPDPEKSGARYIMSDERMAVDIFMAMPEWTLDTEGYMQPYWTGDGYQYLPSKRYFDSMESRLHFLDGNGLKQYRLVYETWAYQTQEAGYKQVYNFLYGSSIPEVDSGYVKIFEYVKGAKITGTVSPNETVNINTTILTGQGRTFELEHHHHHH | soluble
21 | MGSDKIHHHHHHMQDIKDLTAVLRSNTPIVVIETYEEYRVIELLKRVAMTLYQPLFTWSVTSGLSRVDKDMGSQKFNTEPAELLGQIKSTQQQGIYVLCDFHPFVQDAPRNVRLLKEIALEYDALKHTLVLVSHAFEIPPEIRRYCAHFRLSLPSRNQLENLIVEEIDKVRRQGLPLVADESAIARLADNLRGVTFDDARRLIHKAIVDDGAITHDDVERVNQAKFRLMDMDGVLRYEYDTSSFSDIAGLHNLKEWLKARAPELSPQSSAPPPKGILLLGVQGSGKSLAAKAVAGAWQRPLLRLDMAALYNKYIGETEKNLRQALELADLMSPCVLWVDEIEKGISGSSSDEGTSQRILGTLLTWMAERKSDVFLVATANDIQALPPELMRKGRMDEIFFVDLPDEEIRKAIFLIHCKKRGVDVTSMDLGLLSRASQGFSGAEIEQAVISAIYSAASRRQPVEQAIILEELSRTRPLSVVMREKIDSLRAWAKGRTMNAHLD | not soluble

— the DeepSol protein solubility set
